Assay results published in article PMC3625992 (Structure (London, England : 1993), 2012).

Biological target: T1, helicase and C-terminal regulatory domains of human RIG-I (helicase-CTD; residues 230–925) (human, UniProt O95786 230-925)
T1 sequence (looked up): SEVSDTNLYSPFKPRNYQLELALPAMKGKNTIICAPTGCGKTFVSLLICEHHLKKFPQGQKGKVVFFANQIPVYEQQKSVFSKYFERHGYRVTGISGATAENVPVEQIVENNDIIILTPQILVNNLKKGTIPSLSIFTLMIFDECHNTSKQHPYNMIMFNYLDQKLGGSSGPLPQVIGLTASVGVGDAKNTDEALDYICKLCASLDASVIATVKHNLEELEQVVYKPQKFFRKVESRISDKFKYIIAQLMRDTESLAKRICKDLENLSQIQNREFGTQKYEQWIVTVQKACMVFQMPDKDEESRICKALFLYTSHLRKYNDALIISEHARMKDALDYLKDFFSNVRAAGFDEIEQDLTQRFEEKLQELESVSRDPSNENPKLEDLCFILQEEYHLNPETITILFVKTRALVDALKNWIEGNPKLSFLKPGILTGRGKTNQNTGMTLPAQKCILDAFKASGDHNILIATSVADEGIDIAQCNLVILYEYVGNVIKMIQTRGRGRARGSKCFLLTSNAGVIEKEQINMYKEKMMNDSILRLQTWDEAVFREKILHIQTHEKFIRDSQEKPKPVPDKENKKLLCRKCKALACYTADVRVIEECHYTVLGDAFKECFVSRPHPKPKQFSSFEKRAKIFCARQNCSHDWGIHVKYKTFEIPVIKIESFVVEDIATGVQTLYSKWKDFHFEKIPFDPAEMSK
Assay: NMR titration

B1: second CARD of human RIG-I (CARD2; residues 95–190) (domain or fragment, UniProt O95786 95-190, looked up)
chain: KKIEKLEEYRLLLKRLQPEFKTRIIPTDIISDLSECLINQECEEILQICSTKGMMAGAEKLVECLLRSDKENWPKTLKLALEKERNKFSELWIVEK
Kd: 1.66 ± 1.3 µM
